# Experimental data taken from patent publication US20110165161A1, “ANTI-EPCAM ANTIBODIES THAT INDUCE APOPTOSIS OF CANCER CELLS AND METHODS USING SAME” (priority 2009, published 2011).
# T1: EGFI-Cr1 Q47A (human, UniProt P16422 24-63)
# T1 construct: not shown: the constant region of human immunoglobulin gamma 1 heavy chain (Cr1) fused at the C-terminus
# T1 chain: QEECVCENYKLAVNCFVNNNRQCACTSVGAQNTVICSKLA
# T2: EGFI-Cr1 N43A (human, UniProt P16422 24-63)
# T2 construct: not shown: the constant region of human immunoglobulin gamma 1 heavy chain (Cr1) fused at the C-terminus
# T2 chain: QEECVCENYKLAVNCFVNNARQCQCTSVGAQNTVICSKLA
# T3: EGFI-Cr1 V40E (human)
# T3 construct: not shown: The fused constant region of human immunoglobulin gamma 1 heavy chain (Cr1)
# T3 chain: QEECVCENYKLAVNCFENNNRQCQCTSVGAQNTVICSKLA
# T4: EGFI-Cr1 E25K (human, UniProt P16422 24-63)
# T4 construct: not shown: The fused constant region of human immunoglobulin gamma 1 heavy chain (Cr1)
# T4 chain: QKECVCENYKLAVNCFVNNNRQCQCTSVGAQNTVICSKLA
# T5: EGFI-Cr1 T49A (human, UniProt P16422 24-63)
# T5 construct: not shown: the constant region of human immunoglobulin gamma 1 heavy chain (Cr1) fused at the C-terminus
# T5 chain: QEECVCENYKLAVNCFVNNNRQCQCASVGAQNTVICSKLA
# T6: EGFI-Cr1 A35T (human, UniProt P16422 24-63)
# T6 construct: not shown: The fused constant region of human immunoglobulin gamma 1 heavy chain (Cr1)
# T6 chain: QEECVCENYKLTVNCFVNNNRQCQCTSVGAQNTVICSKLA
# T7: EGFI-Cr1 N42E (human, UniProt P16422 24-63)
# T7 construct: not shown: the constant region of human immunoglobulin gamma 1 heavy chain (Cr1) fused at the C-terminus
# T7 chain: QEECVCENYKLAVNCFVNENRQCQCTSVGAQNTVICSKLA
# T8: EGFI-Cr1 E26D (human, UniProt P16422 24-63)
# T8 construct: not shown: The fused constant region of human immunoglobulin gamma 1 heavy chain (Cr1)
# T8 chain: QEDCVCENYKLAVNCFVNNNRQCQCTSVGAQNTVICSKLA
# T9: EGFI-Cr1 F39A (human, UniProt P16422 24-63)
# T9 construct: not shown: The fused constant region of human immunoglobulin gamma 1 heavy chain (Cr1)
# T9 chain: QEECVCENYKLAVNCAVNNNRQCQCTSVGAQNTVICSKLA
# T10: EGFI-Cr1 Q45A (human, UniProt P16422 24-63)
# T10 construct: not shown: the constant region of human immunoglobulin gamma 1 heavy chain (Cr1) fused at the C-terminus
# T10 chain: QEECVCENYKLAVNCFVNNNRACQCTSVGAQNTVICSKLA
# T11: EGFI-Cr1 Q24A (human, UniProt P16422 25-63)
# T11 construct: not shown: The fused constant region of human immunoglobulin gamma 1 heavy chain (Cr1)
# T11 chain: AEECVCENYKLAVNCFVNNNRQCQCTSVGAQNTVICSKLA
# T12: EGFI-Cr1 R44G (human, UniProt P16422 24-63)
# T12 construct: not shown: the constant region of human immunoglobulin gamma 1 heavy chain (Cr1) fused at the C-terminus
# T12 chain: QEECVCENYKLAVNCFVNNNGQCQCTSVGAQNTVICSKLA
# T13: EGFI-Cr1 N37R (human)
# T13 construct: not shown: The fused constant region of human immunoglobulin gamma 1 heavy chain (Cr1)
# T13 chain: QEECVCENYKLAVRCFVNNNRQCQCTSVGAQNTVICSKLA
# T14: EGFI-Cr1 N41A (human, UniProt P16422 24-63)
# T14 construct: not shown: The fused constant region of human immunoglobulin gamma 1 heavy chain (Cr1)
# T14 chain: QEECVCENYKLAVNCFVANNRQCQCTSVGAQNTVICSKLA
# Key:
# [1] = test system: COLO 205 colon cancer cells; test: Cytotoxicity of anti-EpCAM antibodies in combination with oxaliplatin in COLO 205; format: cell-based, human; settings: No mAb added, 24 hr
# Description: Oxaliplatin, combined with infusional administration of 2 other chemotherapy drugs, 5-fluorouracil/leucovorin (5-FU/LV), is now considered as one of the as first-line treatments for people with advanced carcinoma of the colon or rectum (André et al. (2004) N Engl J Med 350(23):2343-2351). To test the cytotoxicity of anti-EpCAM antibodies in the presence of oxaliplatin, 1×10^5 COLO 205 cells were seeded to each well of a 96-well plate, and then 0.03, 0.3 and 3 μg/ml of anti-EpCAM or control (9E10) mAbs in combination with oxaliplatin at concentration of 0, 0.01, 0.1, and 1 μg/ml diluted in the medium were added into the cells. After a 24-hr incubation at 37° C., the cells were stained with 0.3 μl of FITC-conjugated Annexin V (Strong Biotech Corp. Cat. No. AVK250) in 50 μl Annexin V binding buffer (Strong Biotech Corp. Cat. No. AVK250) at RT for 20 min. After wash, the cells were then stained with 0.3 μl of propidium iodide in 200 μl Annexin V binding buffer. Annexin V and Propidium Iodide were used as a joint indicator for measuring cell death. The data were acquired with BD FACSCalibur based on an acquisition of 3,000-5,000 cells and analyzed with the Cell Quest software. The combined percentages of the Annexin V+/PI+, Annexin V+/PI− and Annexin V−/PI+populations were considered as dead cells.
# [2] = biological target: T1, EGFI-Cr1 Q47A; test: direct ELISA, coated EGFI-Cr1 fusion, 0.1 µg/ml antibody
# Description: (§1) A direct ELISA was used for testing the reactivity of anti-EpCAM antibodies toward variant EpCAM mutants. Briefly, purified EpCAM EGF-1 fusion proteins (WT, Q24A, E25K, E26D, A35T, N37R, F39A, V40E, N41A, N42E, N43A, R44G, Q45A, Q47A or T49A) and irrelevant control (CEA-Cr1) were pre-diluted to 0.5 μg/ml in coating buffer (8.4 g NaHCO₃, 3.4 g Na₂CO₃ in 1 L H₂O, pH 9.5) and aliquoted (100 μl/well) into 96-well plates. […] Plates were then washed 3 times with PBST followed by the addition of the enzyme substrate TMB (BD Biosciences, Cat. No. 555214). […] The optical densities at 450 nm wavelength were measured on an ELISA plate reader.
# [3] = biological target: T2, EGFI-Cr1 N43A; test: as above
# Description: as §1
# [4] = biological target: T3, EGFI-Cr1 V40E; test: as above
# Description: as §1
# [5] = biological target: T4, EGFI-Cr1 E25K; test: as above
# Description: as §1
# [6] = biological target: T15, EGFI-Cr1 wild type (first EGF-like repeat of human EpCAM fused to the constant region of human immunoglobulin … (human, UniProt P01857-1 99-330 = IgG part)); test: as above
# T15 construct: cDNA covered aa 1-63; Expressed in COS-7 cells; also called WT; EpCAM EGF-1 fusion protein WT
# Description: as §1
# [7] = biological target: T5, EGFI-Cr1 T49A; test: as above
# Description: as §1
# [8] = biological target: T6, EGFI-Cr1 A35T; test: as above
# Description: as §1
# [9] = biological target: T7, EGFI-Cr1 N42E; test: as above
# Description: as §1
# [10] = biological target: T8, EGFI-Cr1 E26D; test: as above
# Description: as §1
# [11] = biological target: T9, EGFI-Cr1 F39A; test: as above
# Description: as §1
# [12] = biological target: T10, EGFI-Cr1 Q45A; test: as above
# Description: as §1
# [13] = biological target: T11, EGFI-Cr1 Q24A; test: as above
# Description: as §1
# [14] = biological target: T12, EGFI-Cr1 R44G; test: as above
# Description: as §1
# [15] = biological target: T13, EGFI-Cr1 N37R; test: as above
# Description: as §1
# [16] = biological target: T14, EGFI-Cr1 N41A; test: as above
# Description: as §1
relative binding activity (% of WT) [2] [%],relative binding activity (% of WT) [3] [%],relative binding activity (% of WT) [4] [%],relative binding activity (% of WT) [5] [%],relative binding activity (% of WT) [6] [%],relative binding activity (% of WT) [7] [%],relative binding activity (% of WT) [8] [%],relative binding activity (% of WT) [9] [%],relative binding activity (% of WT) [10] [%],relative binding activity (% of WT) [11] [%],relative binding activity (% of WT) [12] [%],relative binding activity (% of WT) [13] [%],relative binding activity (% of WT) [14] [%],relative binding activity (% of WT) [15] [%],relative binding activity (% of WT) [16] [%],Molecule,% of Annexin V + PI staining (untreated background subtracted) ([1]; oxaliplatin 0.01 μg/ml) [%],% of Annexin V + PI staining (untreated background subtracted) ([1]; oxaliplatin 0.1 μg/ml) [%],% of Annexin V + PI staining (untreated background subtracted) ([1]; oxaliplatin 1 μg/ml) [%]
,,,,,,,,,,,,,,,"O=C1[O][Pt]2([NH][C@@H]3CCCC[C@H]3[NH]2)[O]C1=O [Oxaliplatin, reference compound]",1,1,2
92,100,1,10,100,94,93,95,98,81,84,93,1,97,63,"murine monoclonal antibody 1F10 (antibody, mouse IgG1, V domains shown, Mouse IgG1, lambda 1, from hybridoma; also called m338-1F10.3) VH: EVKLLESGGGLVQPGGSLKLSCAASGFDFSRYWMSWVRQAPGKGLEWIGEINPDSSTMNYTPSLKDKFIISRDNAKNTLYLQMSKVRSEDTALYYCARGAYAMDYWGQGTSVTVSS VL: QAVVTQESALTTSPGETVTLTCRSSTGAVTTSNNANWVQEKPDHLFTGLIGATNNRAPGVPARFSGSLIGDKAALTITGAQTEDEAIYFCALWYINHWVFGGGTKLTVLG",,,
49,96,71,3,100,17,89,93,1,78,80,44,95,1,23,"murine monoclonal antibody 1G10 (antibody, mouse IgG1, V domains shown, Mouse IgG1, kappa, from hybridoma; also called m290-1G10) VH: QIQLVQSGPELKKPGETVKISCKASGYTFTNYGMNWVKQAPGKGFKWMGWINTYTGEPTYADDFKGRFAFSLETSASTAYLQINNLQNEDMATYFCARWGYDFDYWGQGTTLTVSS VL: QIVLTQSPAIMSSSPGEKVTMTCSASSSISYMNWYQQKPGTSPKRWIYDTSKLASGVPARFSGSGSGTSYSLTISSMEAEDAATYYCHQRSSYPYTFGGGTKLEIKR",,,
